From paper PMC9810080

Experiments:
[1] = biological target: CaM1 peptide, CNGB1 residues 565–589 (UniProt Q14028); test: ITC
[2] = biological target: CaM2 peptide, CNGB1 residues 1120–1147 (UniProt Q14028); test: ITC
Sequence of CaM2 peptide, CNGB1 residues 1120–1147 (Q14028 1120-1147): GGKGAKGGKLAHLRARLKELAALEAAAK

Sequence of CaM1 peptide, CNGB1 residues 565–589 (Q14028 565-589): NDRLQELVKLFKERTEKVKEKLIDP

Kd of the endothermic site (two-site fit) [1]: 240 µM
apparent Kd of the exothermic site (two-site fit) [1]: 1 µM
dH1 (site 1 of the two-site fit) [1]: -7.5 kcal/mol
stoichiometry N [1]: 2 CaM1 per CaM
dH [2]: 2.1 kcal/mol
dH1 (site 1 of the two-site fit) [2]: -4.5 kcal/mol
stoichiometry N [2]: 2 CaM2 per CaM
Substance: Calmodulin (CaM), full-length (from UniProt P0DP23 1-149) (natural protein)
